# Experiment: yeast display, Sf9 membrane polyspecificity reagent, FACS + sequencing; frameworks hold sequencing errors
# Summary of the method: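 A synthetic nanobody library was expressed on Saccharomyces cerevisiae BJ5465 by galactose induction for 36–48 hours. The library was stained for 1 hour at 4 °C with 10% biotinylated, detergent-solubilized Sf9 membrane reagent and enriched with streptavidin microbeads before FACS. Low and high (top ~1%) gates were set on anti-HA fluorescence for expression and streptavidin fluorescence for reagent binding, and each polyreactivity label reflects the gate of origin.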
row,Sequence,polyreactivity (PSR sort gate)
1,QVQLVESGGGLVQAGGSLRVSCAASGFIFLAYAMGWYSQAPGKERELFAAIDTSGGSTYYADSVKGRFTSTRDNAKNTVYLQMNSLKPEDSAVYYCAADDYDQYYFDYDYWGQGTQVTVSS,low polyreactivity
2,QVQLVESGGGLVQAGGSLRVSCAASGFIFRRYAMGWYRQAPGKERELVAAIRTNSGSTYYADSVKGRFTISRDNAKNTVYLQMNSLKPEDTAVYYCATGQVYRTVSWLYNYWGQGTQVTVSS,high polyreactivity
3,QVQLVESGGGLVQAGGSLRVSCAASGGTFTAYAMGGYIQAPGNERQLVAAISASGDSTYYADSVKGRFTISRDNPKHTVYLQMNSLKPDDTAVYYCAADWAYKYELDYWGQGTQVTVSS,low polyreactivity
4,QVQLVESGGGLVQAGGSLRVSCAASGLIFNTYAMGWYRQAPGKERELVAAITVGGGTNYADSVKGLFRISRDNAKNTVYLQMNSLNPADTAVYYCAARLASWPLTYDFQWYEYWGQGTQVTVSS,low polyreactivity
5,QVQLVESGGGLVQAGGSLRVSCAASGLTFKINAMGWYRQEPGKERELVAAITWNGGRTYYADSVKGRFTISRDNAKNTVYLQMNSLKPEDTAVYYCAADGKYYHRRPGWPIYDYWGQGTQVTVSS,high polyreactivity
6,QVQLVESGGGLVQAGGSLRVSCAASGLTLPPYAMGWDRQAPGKERELVAAITSGGSTNYADSVKGRFTISRDKAKNTVYLQLNSLKPEDTAVYYCAAVGRHYYVKFDFWGQGTHVTVSS,low polyreactivity
7,QVQLVESGGGLVQAGGSLRVSCAASGNTFGGYAMGWYRQAPGKERELVAAISSSGGSTYYADSVKGRFTISRDNAKNTVYLQMNSLKPEDTAVYYCAAYGGVYGYWTMGYWGQGTQVTVSS,high polyreactivity
8,QVQLVESGGGLVQAGGSLRVSCAASGNTFGYFAMGWYRQAPGKERELVAAMSGSGGRTYYAASVKGRFTISRDNAKNTVDLQMNILKPEATAVYYCNAVYYHVVDFDYWGQGTQVTVSS,high polyreactivity
9,QVQLVESGGGLVQAGGSLRVSCAASGRTFGGYAMGWYRQAPGKERELVAAISDRGTSTYYADSVKGRFTISRDNAKNTVYLQMNSLKPEDTAVYYCAARINYWGYYYWGQGTQVTVSS,high polyreactivity
10,QVQLVESGGGLVQAGGSLRVSCAASGRTIRWNAMGWSRQAPGKEREMVAAITSRGGSTYYADSVKGRFTISRDNAKNTVYLQMNSLKPEDTAVYYCAKQPKPPPVTGYDYWGQGTQVTVSS,high polyreactivity
11,QVQLVESGGGLVQAGGSLRVSCAASGSIFRFHVMGWYRQAPGKERELVAAITRGDSTNYADSVKGRFTIPRDNAKNTVYLHMNSLKPEATAVYYCATKTPGWGIFDYWGPGTQVTVSS,low polyreactivity
12,QVQLVESGGGLVQAGGSLRVSCAASGSTCSQYVMGWYRQAPGKERELVAAISGGYRTYYADSVKGRFTISRDNAKNTVYLQMNSLKPEDTAVYYCAAEVLKTRWSYDYWGQGTQVTVSS,high polyreactivity
13,QVQLVESGGGLVQAGGSLRVSCAASGSTFPSNAMGWYRQAPGKERELVATITSAGGGTYYADSVKGRFTISRDNAKNSVYLQMNSLKAEDTAVYYCNADGPAGDAFDYWGPGTQVTVSS,low polyreactivity
14,QVQLVESGGGLVQAGGSLRVSCAASGSTFRVNGMGGYRQAPGKERELLATIRGRGGTTYYADSVKGRFTISRDNAKTTVYLQMNSLKPDDTAVSYCAATNVKRTEGYTPDYDYWGHGTQVTVSS,high polyreactivity
15,QVQLVESGGGLVQAGGSLRVSCAASGSTFWSNVMGWYRQAPGKERELDSAISYGGVTTSYADSVKGRFTISRDNAKNTVYLQMNSLKPEDTAVYYCATDYVGYYFYESDYWGQGTQVTVSS,low polyreactivity
16,QVQLVESGGGLVQAGGSLSFSCAASGSIFDYNAMGWYRQAPGKERELVADIRGIGGSTYYADSVKGRFTISRDNAKNTFYLQMNSLIPEDTAVYYCNTSTLGGYYWGQGTQVTVSS,low polyreactivity
17,QVQLVESGGGLVQAGGSLSLICAASGRNFYTYAMGWYRQAPGKERELVAAISWSGGSTYYADSVKGRFTISRDNAKNTVYLQMNSLNPEDTAVYYCNARFRFGWPGYDYWGQGTQVTVSS,high polyreactivity
18,QVQLVESGGGLVQAGGSLSLICADTGLTFRVYAMGWYRQAPGKERELVAAISSRGGSTYYADSVKGRFTISRDNAKYTVLLQMNSLKPEDTAVYDCYARGQGGYWGQGTQVTVSS,high polyreactivity
19,QVQLVESGGGLVQAGGSLSLSCAASGFIFGWYAMGWFRQAPGKERELVAAIYASGTRTYYADSVKGRFTISRDNAKNTVYLQMNSLKPEDTAVYYCNVYTKFVYAYDYWGQGTQVTVSS,high polyreactivity
20,QVQLVESGGGLVQAGGSLSLSCAASGFNSSHYAMGWYRQAPGKERELVATISSGGSTYADSVKGRFTISRDNAKNTVYLQMNSLKPEDTAVYYCDKGVRYKQYHIMYYWGQGTQVTVSS,high polyreactivity
21,QVQLVESGGGLVQAGGSLSLSCAASGFTFGRNAMGWYRQAPGKERELVASIDWSGGSTYYADSVKGRFTISRDNAKNTVYLQMNSLKPEDTAVYYCAVGPNSVGNRSYGFDYWGQGTQVTVSS,low polyreactivity
22,QVQLVESGGGLVQAGGSLSLSCAASGFTFYSYTMGWYRQAPGKDREMVAAISGRSVRTYYADSVKGRFTISRDNAKNTVYLQMNSLKPEDTAVYYCARAYYWRTSWYNYWGQGTQVTVSS,high polyreactivity

row,Sequence,polyreactivity (PSR sort gate)
1,QVQLVESGGGLVQAGGSLSLSCAASGIIFYNYAMGWYRQAPGKERELVAAISSSGGRTYYAESVKGRFTISRDNAKNTVYLQMNSLKPEDTAVYYCAAYVWAYYVPYNYGYWGQGTQVTVSS,high polyreactivity
2,QVQLVESGGGLVQAGGSLSLSCAASGITLYWYAMRWYIQAPGKERELVATINWSGGSTYYADSVKGRFTISRDNAKNTVYLQMNSLKPEDTAVYYCNVDYSDEGMGYWGQGTQVTVSS,low polyreactivity
3,QVQLVESGGGLVQAGGSLSLSCAASGLIFLQYGMGWYREAPGKERELVAAITTRGGRTYYADSVKRRFTISRDNAKNTVYLQMNSLKPEDTAVYYCAADSEQDNLRYYRWVWYYYWGQGTQVTVSS,low polyreactivity
4,QVQLVESGGGLVQAGGSLSLSCAASGLIFYIYAMGWYRQAPGKEMELVAAITESGGSTYYADSVKGRFTISRDNAKNTVYLQMNSLKPEDTAVYYCAKDFHNYPSFGEDYWGQGTQVTVSS,low polyreactivity
5,QVQLVESGGGLVQAGGSLSLSCAASGLTFANYVMGWYRQEPGKERELVAAISRSGGSTYYADSVKGRFTISRDNAKNTVYLQMNSLKPEDPAVYYCAAAAWDPKGSRYDYWGQGPQVTVSS,low polyreactivity
6,QVQLVESGGGLVQAGGSLSLSCAASGLTFTGNAMGWYRQAPGKERELVAAISWSGGSTYYADSVKGRYTISRDNAKNTVYLQMNSLKPEDTAVYYCGDPDSRYDYWGQGTQVTVSS,high polyreactivity
7,QVQLVESGGGLVQAGGSLSLSCAASGLTFVYYVMGWYRQAPGKERELVAAISSGGGTYYADSVKGRFTISRDNAKNTVYLQMNSLKPEDTAVYYCAADLLGWFDFDYWGQGTQVTVSS,high polyreactivity
8,QVQLVESGGGLVQAGGSLSLSCAASGRIFADNAMGWYRQSPGKESELVADITYSGGSTYYAESVKGRFTISRDNAKNTLYLQMNSLNPEDTAFYYCAKQCVDYWGQGTQVTVSS,low polyreactivity
9,QVQLVESGGGLVQAGGSLSLSCAASGRIFNQNAMGWYRQAPGKERELVAAISKSGTRTYYADSVKGRFTISRDNAKNTVYLQMNSLNREDTAVYYCAADYYRRIGGYRYDYDYWGQGTEVTVSS,high polyreactivity
10,QVQLVESGGGLVQAGGSLSLSCAASGRIFPPYAMGWYRPAPGKERELVAAISVSGSNTYYADSVKGRFTISRYNAKNTVYLQMNSLKPEDTAVYYCNAKRYSPVYYWYDYCGQGTQVTVSS,high polyreactivity
11,QVQLVESGGGLVQAGGSLSLSCAASGRIFYYNAMGWYRQAPGKERELVAAITRGGSTYYADSVKGRFTISRDNAKNTVYLQMNSLKPEDTAVYYCAADRTGYSRYTTSVKGQRYYYWGQGTQVTVSS,high polyreactivity
12,QVQLVESGGGLVQAGGSLSLSCAASGRIRRYTMGWYRQAPGKERELVASISGNGGSTYYADSVTGRFTISRDNAKNTVYLQMNSLKPEDTAVYDCARTKQEYTFGQFYLGDYWGQGTQVTVSS,low polyreactivity
13,QVQLVESGGGLVQAGGSLSLSCAASGRNFVINALGWYRQAPGTERELVARIRSGGSTNYADSVKGRFTISRDNAKNTVYLQMNSLKPEDTAVYYCAAYLRTERYGYWGQGTQVTVSS,high polyreactivity
14,QVQLVESGGGLVQAGGSLSLSCAASGRTFDTYAMGWYRQAPGKERELVASITQSGGTTYYADSVKGRFTISRDNAKNTVYLQMNSLKPEDTAVYYCAARSYGSTSPIRVQLYYWGQGTQVTVSS,high polyreactivity
15,QVQLVESGGGLVQAGGSLSLSCAASGRTFFKYAMGWYRQAPGKERELVASITGRGGSTYADSVKGRFTISRDNAKNTVYLQMNSLKPEDTAVYYCAKVYQRGAQYYYYKYDYWGQGTQVTVSS,high polyreactivity
16,QVQLVESGGGLVQAGGSLSLSCAASGRTFGSYAMGWYRQAPGKERELVAAITGSGGSTYYADSVKGRFTISRDNAKNNVYLQMNSLKPEDTAVYYCRYLFGYIAMDYWGQGTQVTVSS,low polyreactivity
17,QVQLVESGGGLVQAGGSLSLSCAASGRTFKRYAMGWYRQAPGKERELVAAITSSGTSTYADSVKGRFTISRDNAKNTVYFQMNSLKPEDTAVYYCNRGYFNSRTPTFDYWGQGTQVTVSS,low polyreactivity
18,QVQLVESGGGLVQAGGSLSLSCAASGRTFLYNAMGWYRQAPGKERELVAGITQSGSSTYYADSVKGRFTISRDNAKNTVYLQMNSMKPEDTAVYYCAKVLYRRGYKFDYWGQGTQVTVSS,low polyreactivity
19,QVQLVESGGGLVQAGGSLSLSCAASGRTFQSYAMGWYRQAPGKERELVATITSRGGSTYYADSVKGRFTISRDNAKYTVYLQMNSLKPEVTAVYYCAKRFKSYLGYDYWGQGTQVTVSS,low polyreactivity
20,QVQLVESGGGLVQAGGSLSLSCAASGRTFTPNVMGWYRQAPGKERELVAGISSTGGSTYYADSVKGRFTISRDNAKNTVYLHMNSLKPEDTAVYYCAKEYYDGYFPTFDYDYWGQGTQVTVSS,low polyreactivity
21,QVQLVESGGGLVQAGGSLSLSCAASGRTFVYYAMGWYRQAPGKERELVAAISSSGGRTYYADSVKGRFTISRDNAKNTVYLQMNSLKPEDTAVYYCAARRLSPIYDSWGQGTQVTVSS,high polyreactivity
